According to US20220002407A1:
Blank lines part the entries; values can stand above or below the binder they belong to.

Columns and labels:
[1] = target: CD19 on CD19-positive human tumor cells (Raji, Raji-Luc, NALM6, Reh) (human) (UniProt P15391); test: flow cytometry on CD19-positive Raji cells, AF647 goat anti-human IgG detection
[2] = target: CD19 on CD19-positive human tumor cells (Raji, Raji-Luc, NALM6, Reh) (human) (UniProt P15391); test: cell-based or functional assay
[3] = target: CD3 on the membrane of CIK cells (T cells) of a cynomolgus monkey (cynomolgus monkey) (UniProt Q95LI5); test: flow cytometry on cynomolgus monkey CIK (T) cells
Chain of CD3 on the membrane of CIK cells (T cells) of a cynomolgus monkey (cynomolgus monkey) (Q95LI5 22-198, chain 1 of 3): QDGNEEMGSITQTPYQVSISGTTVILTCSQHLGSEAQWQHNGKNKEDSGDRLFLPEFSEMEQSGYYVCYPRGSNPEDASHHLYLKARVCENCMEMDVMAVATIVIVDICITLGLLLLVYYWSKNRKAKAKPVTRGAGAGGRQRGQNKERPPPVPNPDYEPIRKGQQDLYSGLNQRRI
Chain of CD3 on the membrane of CIK cells (T cells) of a cynomolgus monkey (cynomolgus monkey) (Q95LI8 22-171, chain 2 of 3, further chain): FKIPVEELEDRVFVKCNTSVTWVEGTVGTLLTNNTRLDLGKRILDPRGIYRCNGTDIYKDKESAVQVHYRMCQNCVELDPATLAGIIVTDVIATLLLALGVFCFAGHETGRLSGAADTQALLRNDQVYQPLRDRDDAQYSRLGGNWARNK
Chain of CD3 on the membrane of CIK cells (T cells) of a cynomolgus monkey (cynomolgus monkey) (Q95LI7 23-181, chain 3 of 3, further chain): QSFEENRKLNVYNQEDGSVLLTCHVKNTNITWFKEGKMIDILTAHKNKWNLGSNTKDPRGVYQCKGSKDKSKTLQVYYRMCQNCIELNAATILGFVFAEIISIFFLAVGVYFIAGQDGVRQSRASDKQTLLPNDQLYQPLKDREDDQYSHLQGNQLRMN

[4] = target: CD3 on human T cells (expanded CIK effector cells) (human) (UniProt P07766); test: flow cytometry on expanded CD3-positive human T cells (CIK)
Chain of CD3 on human T cells (expanded CIK effector cells) (human) (P07766 23-207, chain 1 of 3): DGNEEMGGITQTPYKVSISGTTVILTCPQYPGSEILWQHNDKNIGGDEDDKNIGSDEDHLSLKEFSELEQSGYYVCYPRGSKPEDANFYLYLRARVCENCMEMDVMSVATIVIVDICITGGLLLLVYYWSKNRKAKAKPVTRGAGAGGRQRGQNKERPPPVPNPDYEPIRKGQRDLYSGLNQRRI
Chain of CD3 on human T cells (expanded CIK effector cells) (human) (P04234 22-171, chain 2 of 3, further chain): as the sequence (Q95LI8 22-171, chain 2 of 3, further chain) above, with V5I, K15N, V20I, T32S, N33D, N34I, A64T, N74S, L83V, R141H counted along it
Chain of CD3 on human T cells (expanded CIK effector cells) (human) (P09693 23-182, chain 3 of 3, further chain): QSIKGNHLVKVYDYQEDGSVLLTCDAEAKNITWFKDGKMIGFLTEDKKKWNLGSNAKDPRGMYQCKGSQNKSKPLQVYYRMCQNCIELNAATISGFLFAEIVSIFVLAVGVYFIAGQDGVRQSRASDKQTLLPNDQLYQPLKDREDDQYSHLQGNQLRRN

Chain of CD19 on CD19-positive human tumor cells (Raji, Raji-Luc, NALM6, Reh) (human) (P15391 20-556): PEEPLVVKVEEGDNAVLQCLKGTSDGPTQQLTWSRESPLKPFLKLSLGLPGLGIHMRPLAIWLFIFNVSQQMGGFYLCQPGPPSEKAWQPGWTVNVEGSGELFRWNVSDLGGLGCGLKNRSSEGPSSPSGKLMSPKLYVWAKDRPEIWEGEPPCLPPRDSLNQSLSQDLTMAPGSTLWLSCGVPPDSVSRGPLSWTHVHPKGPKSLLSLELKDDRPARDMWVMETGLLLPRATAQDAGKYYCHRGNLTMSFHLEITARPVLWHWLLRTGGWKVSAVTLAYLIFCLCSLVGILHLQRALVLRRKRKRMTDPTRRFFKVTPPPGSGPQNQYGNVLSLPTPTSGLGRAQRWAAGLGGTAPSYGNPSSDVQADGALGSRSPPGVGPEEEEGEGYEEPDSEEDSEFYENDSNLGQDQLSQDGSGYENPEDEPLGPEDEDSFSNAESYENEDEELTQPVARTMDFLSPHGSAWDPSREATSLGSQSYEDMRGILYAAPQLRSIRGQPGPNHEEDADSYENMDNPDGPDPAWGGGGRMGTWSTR

B1: bispecific antibody AB23P10 (anti-CD19×CD3) (bispecific antibody)
chain: QVQLQESGPALVKPTQTLTLTCTFSGFSLSTSGMGVGWIRQPPGKALEWLAHIWWDDDKRYNPALKSRLTISKDTSKNQVFLTMTNMDPVDTATYYCARMELWSYYFDYWGQGTLVTVSSGGGGSGGGGSGGGGSENVLTQSPATLSVTPGEKATLSCSASSSVSYMHWYQQKPGQAPRLLIYDTSKLASGIPARFSGSGSGTDHTLTISSLEAEDVAVYYCFQGSVYPFTFGQGTKLEIKGGGGGGSGGGGSGGGGSSSSSKAPPPSEVQLLESGGGLVQPGGSLKLSCAASGFTFNTYAMNWVRQAPGKGLEWVARIRSKYNNYATYYADSVKDRFTISRDDSKNTAYLQMNNLKTEDTAVYYCVRHGNFGNSYVSWFAYWGQGTLVTVSSGGGGSGGGGSGGGGSELVVTQEPSLTVSPGGTVTLTCRSSTGAVTTSNYANWVQQKPGQAPRGLIGGTNKRAPGTPARFSGSLLGGKAALTLSGVQPEDEAEYYCALWYSNLWVFGGGTKLTVLDKTHTCPPCPAPEAAGGPSVFLFPPKPKDQLMISRTPEVTCVVVDVSHEDPEVKFNWYVDGVEVHNAKTKPREEQYASTYRVVSVLTVLHQDWLNGKEYKCKVSNKALPASIEKTISKAKGQPREPQVYTLPPSRDELTKNQVSLTCLVKGFYPSDIAVEWESNGQPENNYKTTPPVLDSDGSFFLYSKLTVDKSRWQQGNVFSCSVLHEALHNHYTQKSLSLSPG
modifications: Homodimer: two identical copies of this chain, joined by covalent (hinge disulfide) bonds; one copy is given.
EC50 [1]: 2.68 nM | EC50 of activation of NFAT-RE luciferase reporter Jurkat T cells in the presence of Raji target cells [2]: 0.709 nM | EC50 to mediate CIK to kill different tumor cells (NALM6) [2]: 4.4 pM | EC50 to mediate CIK to kill different tumor cells (Reh) [2]: 1.64 pM | EC50 to mediate CIK to kill tumor cells (Raji-LUC) [2]: 0.128 pM | EC50 to mediate CIK to kill tumor cells (Raji-LUC, second row without label) [2]: 0.483 pM | EC50 to mediate PBMCs to kill tumor cells (Raji-LUC) [2]: 0.946 pM | EC50 to mediate PBMCs to kill tumor cells (Raji-LUC, second row without label) [2]: 1.25 pM | EC50 to mediate PBMCs to kill tumor cells (Raji-LUC, third row without label) [2]: 4.18 pM | EC50 [3]: 5.5 nM | EC50 [4]: 32.4 nM

B2: bispecific antibody AB23P9 (anti-CD19×CD3) (bispecific antibody)
chain: QVQLQESGPGLVKPTQTLSLTCTVSGGSISTSGMGVGWIRQHPGKGLEWIGHIWWDDDKRYNPALKSRVTISVDTSKNQVFLKLSSVTAADTAVYYCARMELWSYYFDYWGQGTTVTVSSGGGGSGGGGSGGGGSEIVLTQSPATLSLSPGERATITCRASQSVSYMHWYQQKPGQAPRLLIYDASNRASGVPSRFSGSGSGTDFTLTISSLEPEDAATYYCFQGSVYPFTFGQGTKLEIKGGGGGGSGGGGSGGGGSSSSSKAPPPSEVQLLESGGGLVQPGGSLKLSCAASGFTFNTYAMNWVRQAPGKGLEWVARIRSKYNNYATYYADSVKDRFTISRDDSKNTAYLQMNNLKTEDTAVYYCVRHGNFGNSYVSWFAYWGQGTLVTVSSGGGGSGGGGSGGGGSELVVTQEPSLTVSPGGTVTLTCRSSTGAVTTSNYANWVQQKPGQAPRGLIGGTNKRAPGTPARFSGSLLGGKAALTLSGVQPEDEAEYYCALWYSNLWVFGGGTKLTVLDKTHTCPPCPAPEAAGGPSVFLFPPKPKDQLMISRTPEVTCVVVDVSHEDPEVKFNWYVDGVEVHNAKTKPREEQYASTYRVVSVLTVLHQDWLNGKEYKCKVSNKALPASIEKTISKAKGQPREPQVYTLPPSRDELTKNQVSLTCLVKGFYPSDIAVEWESNGQPENNYKTTPPVLDSDGSFFLYSKLTVDKSRWQQGNVFSCSVLHEALHNHYTQKSLSLSPG
modifications: Homodimer: two identical copies of this chain, joined by covalent (hinge disulfide) bonds; one copy is given.
EC50 [1]: 2.6 nM | EC50 of activation of NFAT-RE luciferase reporter Jurkat T cells in the presence of Raji target cells [2]: 0.853 nM | EC50 to mediate CIK to kill tumor cells (Raji-LUC) [2]: 0.148 pM | EC50 to mediate PBMCs to kill tumor cells (Raji-LUC) [2]: 1.01 pM | EC50 [4]: 49.5 nM

Binders with a lower EC50 [1], results first:

EC50 [1]: 1.92 nM | EC50 of activation of NFAT-RE luciferase reporter Jurkat T cells in the presence of Raji target cells [2]: 1.12 nM | EC50 [4]: 16.7 nM
B3: bispecific antibody AB23P8 (anti-CD19×CD3) (bispecific antibody)
chain: QVTLRESGPALVKPTQTLTLTCTFSGFSLSTSGMGVGWIRQPPGKALEWLAHIWWDDDKRYNPALKSRLTISKDTSKNQVFLTMTNMDPVDTATYYCARMELWSYYFDYWGQGTTVTVSSGGGGSGGGGSGGGGSENVLTQSPATLSVTPGEKATITCRASQSVSYMHWYQQKPGQAPRLLIYDASNRASGVPSRFSGSGSGTDHTLTISSLEAEDAATYYCFQGSVYPFTFGQGTKLEIKGGGGGGSGGGGSGGGGSSSSSKAPPPSEVQLLESGGGLVQPGGSLKLSCAASGFTFNTYAMNWVRQAPGKGLEWVARIRSKYNNYATYYADSVKDRFTISRDDSKNTAYLQMNNLKTEDTAVYYCVRHGNFGNSYVSWFAYWGQGTLVTVSSGGGGSGGGGSGGGGSELVVTQEPSLTVSPGGTVTLTCRSSTGAVTTSNYANWVQQKPGQAPRGLIGGTNKRAPGTPARFSGSLLGGKAALTLSGVQPEDEAEYYCALWYSNLWVFGGGTKLTVLDKTHTCPPCPAPEAAGGPSVFLFPPKPKDQLMISRTPEVTCVVVDVSHEDPEVKFNWYVDGVEVHNAKTKPREEQYASTYRVVSVLTVLHQDWLNGKEYKCKVSNKALPASIEKTISKAKGQPREPQVYTLPPSRDELTKNQVSLTCLVKGFYPSDIAVEWESNGQPENNYKTTPPVLDSDGSFFLYSKLTVDKSRWQQGNVFSCSVLHEALHNHYTQKSLSLSPG
modifications: Homodimer: two identical copies of this chain, joined by covalent (hinge disulfide) bonds; one copy is given.
EC50 to mediate CIK to kill tumor cells (Raji-LUC) [2]: 0.586 pM | EC50 to mediate PBMCs to kill tumor cells (Raji-LUC) [2]: 1.02 pM

EC50 [1]: 1.39 nM | EC50 of activation of NFAT-RE luciferase reporter Jurkat T cells in the presence of Raji target cells [2]: 1.08 nM | EC50 [3]: 5.5 nM | EC50 [4]: 15.7 nM
B4: bispecific antibody AB23P7 (anti-CD19×CD3) (bispecific antibody)
chain: QVQLQESGPGLVKPSQTLSLTCTVSGGSISTSGMGVGWIRQHPGKGLEWIGHIWWDDDKRYNPALKSRVTISVDTSKNQFSLKLSSVTAADTAVYYCARMELWSYYFDYWGQGTLVTVSSGGGGSGGGGSGGGGSEIVLTQSPATLSLSPGERATLSCSASSSVSYMHWYQQKPGQAPRLLIYDTSKLASGIPARFSGSGSGTDFTLTISSLEPEDVAVYYCFQGSVYPFTFGQGTKLEIKGGGGGGSGGGGSGGGGSSSSSKAPPPSEVQLLESGGGLVQPGGSLKLSCAASGFTFNTYAMNWVRQAPGKGLEWVARIRSKYNNYATYYADSVKDRFTISRDDSKNTAYLQMNNLKTEDTAVYYCVRHGNFGNSYVSWFAYWGQGTLVTVSSGGGGSGGGGSGGGGSELVVTQEPSLTVSPGGTVTLTCRSSTGAVTTSNYANWVQQKPGQAPRGLIGGTNKRAPGTPARFSGSLLGGKAALTLSGVQPEDEAEYYCALWYSNLWVFGGGTKLTVLDKTHTCPPCPAPEAAGGPSVFLFPPKPKDQLMISRTPEVTCVVVDVSHEDPEVKFNWYVDGVEVHNAKTKPREEQYASTYRVVSVLTVLHQDWLNGKEYKCKVSNKALPASIEKTISKAKGQPREPQVYTLPPSRDELTKNQVSLTCLVKGFYPSDIAVEWESNGQPENNYKTTPPVLDSDGSFFLYSKLTVDKSRWQQGNVFSCSVLHEALHNHYTQKSLSLSPG
modifications: Homodimer: two identical copies of this chain, joined by covalent (hinge disulfide) bonds; one copy is given.
EC50 to mediate CIK to kill different tumor cells (Reh) [2]: 1.71 pM | EC50 to mediate CIK to kill tumor cells (Raji-LUC) [2]: 0.699 pM | EC50 to mediate CIK to kill tumor cells (Raji-LUC, second row without label) [2]: 0.202 pM | EC50 to mediate PBMCs to kill tumor cells (Raji-LUC) [2]: 1.23 pM | EC50 to mediate PBMCs to kill tumor cells (Raji-LUC, second row without label) [2]: 1.25 pM
